Test results as given in patent US20240425569A1 (VISTERRA, published 2024).
Where a chain is given by its changes, count along the chain named. Names may count otherwise. “And” between values parts separate entries of the source, which are not always exact repeats. Identical values can stand only once. Like-named read-outs stand apart in the source and are kept apart here.

What was measured:
[1] = target: T1, EDIII-DV3 (E protein domain III of dengue virus serotype DV-3) (dengue virus serotype DV-3, UniProt P27915 571-678)
T1 construct: also called DENV-3; EDIII of DV-3

[2] = target: T2, EDIII-DV4 (E protein domain III of dengue virus serotype DV-4) (dengue virus serotype DV-4, UniProt P09866 572-679)
T2 construct: also called DENV-4

[3] = target: T3, EDIII-DV1 (E protein domain III of dengue virus serotype DV-1) (dengue virus serotype DV-1, UniProt P17763 573-680)
T3 construct: also called DENV-1; EDIII of DV-1
T3 chain: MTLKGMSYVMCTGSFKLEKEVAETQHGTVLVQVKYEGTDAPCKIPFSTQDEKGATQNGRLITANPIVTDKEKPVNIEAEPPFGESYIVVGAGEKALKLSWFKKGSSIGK

[4] = target: T2, EDIII-DV4 (E protein domain III of …); remark: listed apart in the source
[5] = target: dengue virus serotype DV-4 (live virus, representative strain not named; E protein) (dengue virus serotype DV-4); assay: cell-based or functional assay
[6] = target: T4, EDIII-DV2 (E protein domain III of dengue virus serotype DV-2) (dengue virus serotype DV-2, UniProt P14337 573-677)
T4 construct: also called DENV-2; EDIII of DV-2

[7] = target: T5, Singapore/2010 (serotype IV EDIII); assay: Kd table, method not stated; Ag DENV-4 Sing
T5 construct: also called ED3-DV4/Sing10; DENV-4 Sing
T5 E protein domain III (EDIII): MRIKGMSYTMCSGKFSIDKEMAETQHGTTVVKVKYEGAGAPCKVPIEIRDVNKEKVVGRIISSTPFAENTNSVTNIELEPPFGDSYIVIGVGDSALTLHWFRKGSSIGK

[8] = target: T6, Nicaragua/2010 (serotype III EDIII)
T6 construct: also called ED3-DV3/Nicaragua10; DENV-3 Nic
T6 E protein domain III (EDIII): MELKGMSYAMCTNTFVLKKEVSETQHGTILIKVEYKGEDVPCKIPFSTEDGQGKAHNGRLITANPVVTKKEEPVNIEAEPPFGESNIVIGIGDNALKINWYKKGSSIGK

[9] = target: T7, New Guinea/1944 (NGC)* (serotype II EDIII) (Dengue virus 2); assay: Kd table, method not stated; Ag DENV-2 NGC
T7 construct: isolated EDIII protein; also called EDIII of DENV-2 NGC

[10] = target: T8, Mexico/1977 (BC287/97)* (serotype IV EDIII) (Dengue virus 4); assay: Kd table, method not stated; Ag DENV-4 BC2
T8 construct: isolated EDIII protein; also called EDIII of DENV-4 Mexico/1997 (BC287/97); DENV-4 BC2

[11] = target: T9, Singapore/2009 (serotype III EDIII)
T9 construct: also called ED3-DV3/Sing09; DENV-3 Sing
T9 E protein domain III (EDIII): T6 E protein domain III (EDIII) with T12Q, T14A, V40A, N94K

[12] = target: T10, Singapore/2008 (serotype II EDIII); assay: Kd table, method not stated; Ag DENV-2 Sing
T10 construct: also called ED3-DV2/Sing08; DENV-2 Sing

[13] = target: T11, Philippines/1956 (H87)* (serotype III EDIII) (Dengue virus 3)
T11 construct: isolated EDIII protein

[14] = target: T1, EDIII-DV3 (E protein domain III of …); assay: competition ELISA
[15] = target: T3, EDIII-DV1 (E protein domain III of …); assay: competition ELISA
[16] = target: T12, New Caledonia/2009 (serotype IV EDIII); assay: Kd table, method not stated; Ag DENV-4 NC
T12 construct: also called ED3-DV4/NewCal09; DENV-4 NC
T12 E protein domain III (EDIII): T5 E protein domain III (EDIII) with V44I, T74I

[17] = target: ED3-DV4/H241/Phil56 (EDIII of DENV-4 strain H241) (dengue virus serotype DENV-4, strain …, UniProt Q58HT7 572-679); assay: Kd table, method not stated; Ag DENV-4 Phil
[18] = target: T13, Peru/1995 (serotype II EDIII); assay: Kd table, method not stated; Ag DENV-2 Peru
T13 construct: also called ED3-DV2/Peru95; DENV-2 Peru

[19] = target: T3, EDIII-DV1 (E protein domain III of …)
[20] = target: T1, EDIII-DV3 (E protein domain III of …); remark: listed apart in the source
[21] = target: T1, EDIII-DV3 (E protein domain III of …); remark: listed apart in the source
[22] = target: T2, EDIII-DV4 (E protein domain III of …); remark: listed apart in the source
[23] = target: T4, EDIII-DV2 (E protein domain III of …); assay: competition ELISA
[24] = target: T2, EDIII-DV4 (E protein domain III of …); remark: listed apart in the source
[25] = target: T2, EDIII-DV4 (E protein domain III of …); remark: listed apart in the source
[26] = target: T2, EDIII-DV4 (E protein domain III of …); assay: competition ELISA; column 'EDIII-DV4'
[27] = target: T2, EDIII-DV4 (E protein domain III of …); assay: competition ELISA; column 'EDIII-DV4 [1/7]'

B1: antibody B48 (antibody, V domains shown)
VH: QVQLVQSGAEVKKPGASVKVSCKAGFNIKDTYMSWVRQAPEQGLEWMGRIDPENGDTKYDPKLQGRVTMTADTSTNTAYMELRSLRSDDTAVYYCARGWEGFAYWGQGTLVTVSS
VL: DIVMTQSPASLAVSLGERATISCRASENVDKYGNSFMHWYQQKPGQPPKLLIYRASELQWGVPDRFSGSGSGTDFTLTISSLQAEDVAVYYCQRSNEVPWTFGQGTKLEIK
notes: also called mAb B48
- Kd [1]: 8 nM
- Kd [2]: 27.6 nM
- Kd [3]: 0.123 nM
- Kd [4]: 19.3 nM

B2: antibody B11 (antibody, V domains shown)
VH: VKLLEQSGAELVKPGASVRLSCTAGFNIKDTYMSWVKQRPEQGLEWIGRIDPENGDTKYDPKFQGKATITADTSSNTAYLHLSSLTSGDTAVYYCSRGWEGFAYWGQGTLVTVSA
VL: ELVMTQTPASLAVSLGQRATISCRASENVDKYGNSFMHWYQQKAGQPPKLLIYRASELQWGIPARFSGSGSRTDFTLTINPVEADDVATYFCQRSNEVPWTFGGGTKLEIK
- Kd [1]: 2.98 nM
- Kd [3]: < 0.1 nM
- IC50, focus reduction neutralization test (FRNT), DV-4 [5]: 0.5 to 1.4 µg/mL

B3: antibody A11 (antibody, V domains shown)
VH: VKLLEQSGAELVKPGASVRLSCTASGFNIKDTYMSWVKQRPEQGLEWIGRIDPENGDTKYDPKFQGKATITADTSSNTAYLHLSSLTSGDTAVYYCSRGWEGFAYWGQGTLVTVSA
VL: B2 VL
notes: also called mAb A11; 4E5A
- Kd [6]: < 0.1 nM
- Kd [1]: 18 nM
- Kd [3]: 0.269 nM
- Kd [7]: 136 nM
- Kd [8]: 32.1 nM
- Kd [9]: < 0.1 nM
- Kd [10]: 86.2 nM
- Kd [11]: 7.5 nM
- Kd [12]: < 0.1 nM
- Kd [13]: 14.1 nM
- Kd [14]: 16.8 nM and 18 nM
- Kd [15]: 0.35 nM and 0.269 nM
- Kd [16]: 202 nM
- Kd [17]: 5080 nM
- Kd [18]: 0.39 nM

B4: mouse mAb 4E11 (antibody, V domains shown)
VH: B3 VH with E54A
VL: B2 VL with K31R, E57N, Q59E, W60S
notes: also called antibody 4E11
- Kd [19]: 0.33 nM
- Kd [9]: 5.2 nM
- Kd [10]: 40800 nM
- Kd [13]: 21.8 nM
- Kd [20]: 21.8 nM

B5: antibody A48 (antibody, V domains shown)
VH: QVQLVQSGAEVKKPGASVKVSCKASGFNIKDTYMSWVRQAPEQGLEWMGRIDPENGDTKYDPKLQGRVTMTADTSTNTAYMELRSLRSDDTAVYYCARGWEGFAYWGQGTLVTVSS
VL: B1 VL
- Kd [1]: 5.8 nM
- Kd [3]: < 0.1 nM

B6: A68 (A48 + A98V) (antibody, V domains shown)
VH: B5 VH with A97V
VL: B1 VL
- Kd [6]: < 0.1 nM
- Kd [1]: 3 nM
- Kd [2]: 13.1 nM

B7: C128 (antibody, V domains shown)
VH: B5 VH with T32V, A97S
VL: B1 VL
- Kd [21]: 0.63 nM
- Kd [22]: 18.7 nM

B8: antibody C98 (antibody, V domains shown)
VH: B5 VH with T32V, A97V
VL: B1 VL
- Kd [21]: 1.21 nM
- Kd [23]: < 0.1 nM
- Kd [14]: 1.29 nM
- Kd [15]: < 0.1 nM

B9: antibody D98 (antibody, V domains shown)
VH: B5 VH with G26A, T32V
VL: B1 VL
- Kd [24]: 16.9 nM

B10: antibody D118 (antibody, V domains shown)
VH: B5 VH with F27W, T32V
VL: B1 VL
- Kd [25]: 12.6 nM
- Kd [26]: 24.4 nM
- Kd [27]: 12.6 nM
- Kd [14]: 9.07 nM
- Kd [15]: < 0.1 nM

B11: D178 (antibody, V domains shown)
VH: B1 VH with T31V, A96V
VL: B1 VL
- Kd [21]: 1.05 nM
- Kd [22]: 4.67 nM
